± gives the uncertainty stated by the source.
Test: protein stability index of a GFP-peptide fusion (yeast GPS) (PSI 1-4); higher = more stable; sorted into four equal gates, so the index is relative within each strain
Outline: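 Plasmids in a pooled yeast library fused tiled 17-residue yeast protein peptides downstream of GFP and also expressed Cherry. Mid-log cultures grown without leucine were sorted into four equal gates by GFP/Cherry fluorescence ratio. Each gate's plasmids were PCR-amplified and Illumina-sequenced, and reads were matched to strains by barcodes. The protein stability index is derived by multiplying each gate's read frequency by its gate number and summing the results.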

Sequence	protein stability index (doa10∆)	protein stability index (pdr5∆)	protein stability index (san1∆)	protein stability index (ubr1∆)
NDTSSGTNAMLPSPESL [SNF5]	2.73 ± 0.042	2.84 ± 0.049	2.74 ± 0.035	2.8 ± 0.042
TANALPLPAVFSAPIRP [RPL4A]	1.79 ± 0.042	2.1 ± 0.042	1.87 ± 0.065	1.98 ± 0.04
REEAIGFIRGSNKFAEV [SMC3]	3.01 ± 0.093	2.94 ± 0.074	2.95 ± 0.094	2.67 ± 0.08
DEMYELTDPMTVMFFYH [DIB1]	2.69 ± 0.092	3.01 ± 0.11	2.83 ± 0.14	2.85 ± 0.11
NVFARLSRLLSLWEVFQ [RPC82]	1.78 ± 0.16	2.06 ± 0.13	2.79 ± 0.14	2.38 ± 0.067
VWNYTFMGTAFNQEGDY [PRP8]	–	3.09 ± 0.19	2.73 ± 0.28	–
YILEAEAAAKEKDELDN [QCR7]	3.1 ± 0.24	3.11 ± 0.11	3.1 ± 0.14	3.18 ± 0.079
TKTVKRASKALIERYYP [RPS17A]	–	2.57 ± 0.21	–	–
MFTQIYLERIELSFYIL [YML103C/NUP188]	1.66 ± 0.1	1.46 ± 0.074	1.36 ± 0.1	1.75 ± 0.12
VLKYMLLSKIMLNLIDD [RPN6]	2.04 ± 0.06	1.49 ± 0.05	1.2 ± 0.098	1.66 ± 0.045
TPSTNEPYARVSGDLNP [FAS1]	2.96 ± 0.074	2.6 ± 0.077	2.46 ± 0.15	2.39 ± 0.073
INHTILGKLQDVFNLLP [RPN8]	3.16 ± 0.066	3.17 ± 0.081	2.84 ± 0.048	2.96 ± 0.046
EHKPVSPDKIGTFTADY [SSN2]	2.98 ± 0.071	3.15 ± 0.051	2.9 ± 0.058	3.09 ± 0.048
VITIKSRIRVKIEGCIS [RPB7]	2.04 ± 0.082	2.13 ± 0.056	1.88 ± 0.081	2.07 ± 0.064
SQTTQLAGMDVEDALDK [FAS2]	3.31 ± 0.094	3.47 ± 0.11	3.31 ± 0.083	3.62 ± 0.071
NDDIEWMLSICVEWRLP [YJR042W/NUP85]	1.64 ± 0.069	1.53 ± 0.036	1.83 ± 0.11	1.9 ± 0.058
EDISKATHLPKDNVEHL [RPN9]	2.91 ± 0.084	3.13 ± 0.076	3.12 ± 0.091	3.26 ± 0.061
VEIIDQKKVLIDGPKAG [RPL14A]	2.8 ± 0.18	2.65 ± 0.09	2.91 ± 0.076	2.72 ± 0.065
NVANVSGSTEKAFKICE [SIR3]	2.96 ± 0.054	2.91 ± 0.048	3.18 ± 0.043	3.11 ± 0.058
VHNTNSFIISSLDTLEL [NUT1]	2 ± 0.076	2.34 ± 0.067	1.99 ± 0.086	2.54 ± 0.07
NKQYELFMKSLIENCKK [SWI1]	2.58 ± 0.053	2.85 ± 0.061	2.77 ± 0.046	2.66 ± 0.036
HKSPNLSLMLESPNYCN [SRB4]	2.28 ± 0.078	2.65 ± 0.1	2.64 ± 0.095	2.71 ± 0.06
IAIAGTGQIEGLLDYMR [COR1]	3.37 ± 0.088	3.54 ± 0.081	3.17 ± 0.061	3.15 ± 0.057
LDNLKLKELRIDNSPQA [GRR1]	2.65 ± 0.054	2.72 ± 0.07	2.69 ± 0.07	2.94 ± 0.042
QIDYKLESFQAVYNKLT [RPS7A]	2.26 ± 0.043	2.4 ± 0.051	2.41 ± 0.063	2.85 ± 0.037
LLFIVGQVAIKTLVYLE [YCS4]	–	1.74 ± 0.2	–	3.18 ± 0.1
FFYNISSIHWNNWFSLP [SIN4]	2.09 ± 0.036	1.96 ± 0.038	2.03 ± 0.05	2.13 ± 0.036

Sequence	protein stability index (doa10∆)	protein stability index (pdr5∆)	protein stability index (san1∆)	protein stability index (ubr1∆)
KVTEKVLTQLTALALKY [CSI1]	2.24 ± 0.044	2 ± 0.029	2 ± 0.039	2.13 ± 0.044
ALIKFMEYHISNTDETK [FAS2]	2.77 ± 0.1	2.5 ± 0.077	2.59 ± 0.12	2.3 ± 0.055
KMVKAWNLNQFQIEADF [ASC1]	2.58 ± 0.046	2.67 ± 0.053	2.58 ± 0.067	2.55 ± 0.04
DQSIASGNTNGAGSAFG [YOR098C/NUP1]	3.26 ± 0.072	2.49 ± 0.06	2.44 ± 0.079	2.49 ± 0.078
RHIKSKHEDLSLEQRQE [RPN4]	2.97 ± 0.069	3.05 ± 0.086	2.79 ± 0.096	3.03 ± 0.066
GTSLTIQHIAAAMVPFI [CDC53]	2.75 ± 0.05	2.91 ± 0.046	2.6 ± 0.066	3.03 ± 0.043
TPLLENISISTSELGND [BRR2]	2.16 ± 0.058	2.05 ± 0.049	2.2 ± 0.07	2.03 ± 0.042
PFVPVLDRRFEIFFKKD [FAS1]	2.87 ± 0.059	2.98 ± 0.067	2.73 ± 0.055	2.86 ± 0.057
ELYEVDVLKVNTLVRPN [RPL25]	2.52 ± 0.095	2.67 ± 0.099	2.72 ± 0.12	2.87 ± 0.088
NELERNRKIYQFTLYDR [SMC3]	1.5 ± 0.23	2.45 ± 0.1	2.31 ± 0.14	2.88 ± 0.1
ERAELETDEYISYTSHI [RPN1]	3.14 ± 0.071	3.19 ± 0.076	3.01 ± 0.065	3.19 ± 0.05
DIKDFADKVYTKENLEV [QCR2]	3.34 ± 0.092	3.42 ± 0.11	2.69 ± 0.12	3.33 ± 0.053
PDENKTRVRLPSGAKKV [RPL2A]	3.12 ± 0.075	2.96 ± 0.079	3.1 ± 0.037	3.08 ± 0.05
ASKKFGKICLILTRLNG [SSN2]	1.99 ± 0.17	2.14 ± 0.27	–	–
NWRSFNAKIIDAEVAQF [SRP68]	2.53 ± 0.071	2.56 ± 0.048	2.01 ± 0.073	2.43 ± 0.098
WIKNEQERQRQIQKNGP [PRP8]	2.75 ± 0.092	3.09 ± 0.11	2.85 ± 0.14	2.84 ± 0.094
SNGFNNVTFGSKKDPRI [YMR153W/NUP53]	2.77 ± 0.048	2.74 ± 0.059	2.89 ± 0.045	2.87 ± 0.046
CERRSTLKLQDTRITPS [PRE6]	2.53 ± 0.061	2.81 ± 0.092	3.09 ± 0.099	2.82 ± 0.059
LMEFLCVVSTDSTNLSD [ECM29]	1.92 ± 0.059	1.65 ± 0.056	1.84 ± 0.094	1.72 ± 0.063
LESADKQLEKRDYQRIN [POP4]	2.71 ± 0.052	2.72 ± 0.055	2.64 ± 0.065	3.18 ± 0.059
TGGTRTKTPGPGGQAAL [RPS14A]	3.24 ± 0.04	3.11 ± 0.036	3.05 ± 0.034	3.149 ± 0.028
FSFGKSDAAKEPPGSNT [YOR098C/NUP1]	–	3.58 ± 0.16	2.84 ± 0.13	2.68 ± 0.2
SDSYKVSLQNFSSSVSL [RRP40]	2.69 ± 0.055	1.8 ± 0.044	2.02 ± 0.079	1.91 ± 0.037
DVKLLHSQFMKDLKDDS [YJL039C/NUP192]	2.72 ± 0.075	2.85 ± 0.091	2.98 ± 0.077	2.72 ± 0.055
KNVETLEEKILAKKTHK [SMC4]	2.65 ± 0.075	2.94 ± 0.077	2.79 ± 0.053	2.92 ± 0.11
LISNAIYGKKTMVIQDE [ECM29]	1.58 ± 0.25	1.83 ± 0.27	–	1.4 ± 0.14

Reference: the supplement of paper PMC9732359
